Experimental findings from article PMC7903523 (Nature, 2020) are described below.

The data set deals with the molecule itself. Nature of the data set: cryo-EM structure.

B1: human sterol O-acyltransferase 1 (ACAT1), full length, C-terminal Flag-tag (enzyme, UniProt P35610 1-550, looked up)
chain: MVGEEKMSLRNRLSKSRENPEEDEDQRNPAKESLETPSNGRIDIKQLIAKKIKLTAEAEELKPFFMKEVGSHFDDFVTNLIEKSASLDNGGCALTTFSVLEGEKNNHRAKDLRAPPEQGKIFIARRSLLDELLEVDHIRTIYHMFIALLILFILSTLVVDYIDEGRLVLEFSLLSYAFGKFPTVVWTWWIMFLSTFSVPYFLFQHWATGYSKSSHPLIRSLFHGFLFMIFQIGVLGFGPTYVVLAYTLPPASRFIIIFEQIRFVMKAHSFVRENVPRVLNSAKEKSSTVPIPTVNQYLYFLFAPTLIYRDSYPRNPTVRWGYVAMKFAQVFGCFFYVYYIFERLCAPLFRNIKQEPFSARVLVLCVFNSILPGVLILFLTFFAFLHCWLNAFAEMLRFGDRMFYKDWWNSTSYSNYYRTWNVVVHDWLYYYAYKDFLWFFSKRFKSAAMLAVFAVSAVVHEYALAVCLSFFYPVLFVLFMFFGMAFNFIVNDSRKKPIWNVLMWTSLFLGNGVLLCFYSQEWYARQHCPLKNPTFLDYVRPRSWTCRYVF
With B1, the stoichiometry N (usually the number of molecules, sites or subunits per partner or assembly) came out at 4.
